Data on two molecules can be found in patent US20220372137A1 (OXFORD BIOTHERAPEUTICS, published 2022).

For test [1], the target named is T1, human SLAMF6 expressed on the cell surface (Raji cells, human PBMCs, T cells) (human, UniProt Q96DU3 22-332).
T1 construct: Endogenous SLAMF6 on human cells; also called NTB-A; CD352
T1 sequence: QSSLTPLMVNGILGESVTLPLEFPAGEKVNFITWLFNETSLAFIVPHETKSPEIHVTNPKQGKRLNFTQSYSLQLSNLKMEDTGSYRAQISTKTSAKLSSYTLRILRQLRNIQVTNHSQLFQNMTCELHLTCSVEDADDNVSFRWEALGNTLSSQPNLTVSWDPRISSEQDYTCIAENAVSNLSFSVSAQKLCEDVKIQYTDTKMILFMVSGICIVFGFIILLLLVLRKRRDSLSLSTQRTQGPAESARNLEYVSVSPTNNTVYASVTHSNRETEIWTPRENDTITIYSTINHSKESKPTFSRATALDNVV
In words: flow cytometry on human PBMCs pre-blocked with 300 nM SLAMF6 ECD-mIgG2a Fc fusion protein, goat anti-human IgG-RPE secondary antibody. The procedure: Cryopreserved human PBMCs were thawed and washed once by suspension in FACS buffer (DPBS with 2% FCS) followed by centrifugation for 5 minutes at 1200 rpm to pellet cells and discarding of supernatant (same method used for subsequent washes). The cells were dispensed into a 96-well assay plate at 100,000 cells per well in FACS buffer before being washed once more. Cells were then blocked with SLAMF6 ECD-mIgG2a Fc fusion protein at 100 nM or 300 nM for 1 hr for SLAMF6 receptor blocking in 100 μl FACS buffer on ice for 1 hour before being washed. Humanized Hu_1B3 antibody or human IgG1 Isotype control at top concentration of 10 nM and a titration by serial dilution of 1 in 3, was then added to the blocked PBMCs and the cells were incubated for 1 hr on ice before being washed twice. The secondary antibody, goat anti-human-IgG-RPE (Southern Biotech, Ref: 2040-05) at a concentration of 1 μg/mL in FACS buffer, was then applied to the treated cells for 30 minutes on ice. […] Mean fluorescence intensity for the secondary antibody was determined for each sample using an Attune NxT Flow Cytometer (ThermoFischer Scientific) in a 96-well plate format according to industry standard protocols, and the raw data was analyzed using FlowJo analysis software.

The target of test [2] is T2, Antigen flowed over the chip in the Biacore experiment (SLAMF6, construct not stated) (Homo sapiens (Human), UniProt Q96DU3 22-226, limits assumed).
T2 sequence: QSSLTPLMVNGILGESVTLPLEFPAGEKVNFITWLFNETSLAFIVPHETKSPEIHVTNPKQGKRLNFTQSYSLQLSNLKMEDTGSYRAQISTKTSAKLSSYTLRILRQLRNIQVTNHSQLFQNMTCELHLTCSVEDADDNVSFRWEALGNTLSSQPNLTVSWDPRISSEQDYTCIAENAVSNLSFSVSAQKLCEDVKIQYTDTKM
In words: SPR, Biacore T-200 at 25 °C; antibody captured on goat anti-human IgG, antigen flowed over. The procedure: Flow cells 2, 3 and 4 of the CM5 chip were coated with maximum amounts 500 RU of goat anti-human IgG. Test Ab were captured on flow cells 2, 3 and 4. Flow cell 1 was kept blank and used for reference subtraction. Antigen was flowed over the chip. Binding of antigen to the antibodies was monitored in real time. From the observed kₒₙ and koff, KD was determined.

In test [3] the target is T1, human SLAMF6 expressed on the cell …. The experiment in a line: cell-based or functional assay.
Test [4] shares this target. In words: flow cytometry on SLAMF6-expressing Raji cells, goat anti-mouse secondary antibody. The procedure: […] Raji cells were placed in each well of a 96 well plate and washed 1× with FACS buffer (DPBS, 2% FBS). The cells were pelleted by spinning for 5 min at 1200 rpm. The pellet was washed 1× with FACS buffer (DPBS, 2% FBS) and again pelleted by spinning for 5 min at 1200 rpm and resuspended in FACS buffer. The test antibody were diluted to 30 nM/l in FACS buffer and increasing amounts as shown in FIG. 4 added to each well which was incubated for 30 min on ice. The cells were then washed 1× with FACS buffer (DPBS, 2% FBS) and pelleted, washed and resuspended in FACS buffer. Secondary goat-anti-mouse antibody was diluted to 1 μg·ml and 100 μl added to each well the plate was incubated for 30 min on ice then washed 1× with FACS buffer (DPBS, 2% FBS). The cells were pelleted and resuspended in 200 ul FACS buffer. Samples were read using the Guava Easycyte Plus HT flow cytometer and results analysed using the Guava Cytosoft software suite.
(A flow cytometer gives signals particle by particle.)

B1: humanised antibody Hu_1B3 (antibody, human IgG1, kappa, L234A L235A, V domains shown)
VH: QVQLVQSGAEVKKPGASVKVSCKASGYAFTNYLIEWVRQAPGQGLEWIGVINPGSGGTNYNEKFQGRVTLTADKSISTAYMELSRLRSDDTAVYYCARRGWDYFDYWGQGTLVTVSS
VL: DIQLTQSPSSLSASVGDRVTITCQASQDVSYIYWYQQKPGKAPKPWIYRTSNLATGVPSRFSGSGSGTDYTFTISSLQPEDIATYYCQQWDNNPYTFGQGTKLEIKR
notes: It was captured or detected with anti-human IgG and compared with a human IgG1 isotype control; also called humanised 1B3 antibody; humanized Hu_1B3 antibody
B1: in test [1], the EC50 (read off the curve) (as a rule, the concentration at which the effect is half-maximal) is about 0.4 nM. In test [2], the Ka was found to be 5.8e+08 M⁻¹; the Kd – broadly, a measure of binding affinity in units of concentration – worked out at 1.72 nM; the koff – broadly, the first-order rate constant of dissociation – was 0.000932 s⁻¹; the kon (usually the second-order rate constant of association) was 541000 M⁻¹ s⁻¹. In test [3], the “Granzyme B release from activated T cells (plate-coated antibody plus OKT3, ELISA), EC50” value worked out at 0.51 µg/mL and the “upregulation of intracellular perforin in CD8+ T cells (flow cytometry), EC50” value came out at 0.44 µg/mL.

B2: parental murine 1B3 antibody (antibody, V domains shown)
VH: QVQLKQSGAELVRPGTSVKVSCKASGYAFTNYLIEWVKQRPGQGLEWIGVINPGSGGTNYNEKFKDKATLTADKSSNTAYMQLSSLTSDDSAVYFCARRGWDYFDYWGQGTTLTVSS
VL: QIVLTQSPALMSTSPGEKVTMTCSASSSVSYIYWFQQKPGSSPKPWIYRTSNLASGVPARFSGSGSGTSYSLTISSMEAEDAATYYCQQWDNNPYTFGGGTKLEIK
notes: also called antibody 1B3; mouse 1B3
Consider B2, for which the “EC50 (read off the curve)” value in test [4] was about 0.2 nM.
